Measurements as given in the supplement of paper PMC6755084.

B1: F1*; the commonest letter at each place (parent)
chain: GAGACCGCAACTGAAAAGTTGTTATCACTTGTCGTAAGACACTTTGGATGGGTTGAAGTTCTGCACGTAGAAGCAAAAGGC

Variants of: B1
Experiment: fraction ligated after 30 min (ligated reads / total reads); higher = more ligase activity
Settings: with F1*sub RNA substrate (template-directed ligation), 42 °C
Procedure, shortened: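 Ligase ribozyme variants were made from oligo-pool templates by PCR amplification, T7 transcription and gel purification. After gel separation, ligated and unligated bands were reverse transcribed with barcoded primers and sequenced on a MiSeq, with core bases filtered at quality ≥20. The fraction ligated for each variant was the number of ligated reads divided by total reads.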

Going from C28A A39C to C28A A39T, the fraction ligated falls from 0.802 to 0.794.

Going from C28A A39G to C28G T43G, the fraction ligated falls from 0.798 to 0.794.

First: C28G T43A
Second: C28G T43C
The fraction ligated of the first is higher: 0.807 for the first, 0.798 for the second.

First: C28A T29G
Second: C28A T29C
The fraction ligated of the first is lower: 0.814 for the first, 0.828 for the second.

Going from C28A T29A to C28T A36T, the fraction ligated rises from 0.798 to 0.799.

Compared with C28T A36G, C28T A36C is lower in fraction ligated: 0.81 for the first, 0.801 for the second.

First: T29A G31A
Second: T29A G31T
The fraction ligated of the first is lower: 0.844 for the first, 0.845 for the second.

Going from T29A G31C to C28G A39T, the fraction ligated falls from 0.842 to 0.755.

Going from C28G A39C to C28G A39G, the fraction ligated rises from 0.759 to 0.772.

First: T29A T44C
Second: T29A T44G
The fraction ligated of the first is higher: 0.825 for the first, 0.812 for the second.

First: T29A T44A
Second: T29A A57T
The fraction ligated of the first is higher: 0.833 for the first, 0.813 for the second.

T29A A57G and T29A A57C are the same in fraction ligated: 0.818 for the first, 0.818 for the second.

Going from C28T T44G to C28T T44A, the fraction ligated rises from 0.813 to 0.816.

First: C28T T44C
Second: C28T G50C
The fraction ligated of the first is higher: 0.783 for the first, 0.323 for the second.

Compared with C28T G50T, C28T G50A is lower in fraction ligated: 0.747 for the first, 0.352 for the second.

Compared with C28A G38A, C28A G38C is higher in fraction ligated: 0.789 for the first, 0.814 for the second.

First: C28A G38T
Second: C28T G46T
The fraction ligated of the first is higher: 0.799 for the first, 0.788 for the second.

First: C28T G46C
Second: C28T G46A
The fraction ligated of the first is lower: 0.8 for the first, 0.802 for the second.

Compared with C28T, C28G is lower in fraction ligated: 0.812 for the first, 0.797 for the second.

Compared with C28G G46T, C28G G46A is higher in fraction ligated: 0.771 for the first, 0.811 for the second.

First: C28G G46C
Second: C28A G47C
The fraction ligated of the first is higher: 0.792 for the first, 0.302 for the second.

First: C28A G47A
Second: C28A G47T
The fraction ligated of the first is higher: 0.75 for the first, 0.361 for the second.

Going from C28A G34T to C28A G34C, the fraction ligated falls from 0.808 to 0.779.

Compared with C28A G34A, C28A T30A is lower in fraction ligated: 0.812 for the first, 0.8 for the second.

Going from C28A T30G to C28A T30C, the fraction ligated falls from 0.808 to 0.804.

First: T29A G55C
Second: T29A G55A
The fraction ligated of the first is lower: 0.79 for the first, 0.84 for the second.

Going from T29A G55T to T29A T49A, the fraction ligated falls from 0.788 to 0.784.

First: T29A T49G
Second: T29A T49C
The fraction ligated of the first is higher: 0.789 for the first, 0.66 for the second.

Going from C28A C33A to C28A C33G, the fraction ligated falls from 0.818 to 0.813.

Compared with C28A C33T, T29A A56T is lower in fraction ligated: 0.829 for the first, 0.827 for the second.

Going from T29A A56G to T29A A56C, the fraction ligated rises from 0.789 to 0.799.

Going from C28T G34T to C28T G34C, the fraction ligated falls from 0.802 to 0.79.

Going from C28T G34A to C28A G55C, the fraction ligated falls from 0.814 to 0.19.

Compared with C28A G55A, C28A G55T is higher in fraction ligated: 0.793 for the first, 0.8 for the second.

First: C28T T35G
Second: C28T T35C
The fraction ligated of the first is lower: 0.785 for the first, 0.789 for the second.

Going from C28T T35A to T29A T45A, the fraction ligated falls from 0.802 to 0.774.

First: T29A T45G
Second: T29A T45C
The fraction ligated of the first is lower: 0.475 for the first, 0.651 for the second.

Going from T29A A39G to T29A A39C, the fraction ligated falls from 0.845 to 0.82.

Going from T29A A39T to C28T A57G, the fraction ligated falls from 0.831 to 0.798.

Compared with C28T A57T, C28T A57C is lower in fraction ligated: 0.817 for the first, 0.744 for the second.

Compared with T29A A37G, T29A A37C is higher in fraction ligated: 0.839 for the first, 0.849 for the second.

First: T29A A37T
Second: T29C C33T
The fraction ligated of the first is higher: 0.848 for the first, 0.816 for the second.

First: T29C C33A
Second: T29C C33G
The fraction ligated of the first is lower: 0.824 for the first, 0.827 for the second.

C28T A39G and C28T A39T are the same in fraction ligated: 0.796 for the first, 0.796 for the second.

First: C28T A39C
Second: T29C C42A
The fraction ligated of the first is lower: 0.795 for the first, 0.85 for the second.

First: T29C C42T
Second: T29C C42G
The fraction ligated of the first is higher: 0.828 for the first, 0.818 for the second.

Going from C28T T49A to C28T T49G, the fraction ligated rises from 0.743 to 0.811.

Going from C28T T49C to C28G T44G, the fraction ligated rises from 0.749 to 0.778.

First: C28G T44C
Second: C28G T44A
The fraction ligated of the first is lower: 0.778 for the first, 0.791 for the second.

First: C28A C40T
Second: C28A C40G
The fraction ligated of the first is lower: 0.773 for the first, 0.824 for the second.

First: C28A C40A
Second: T29A T35C
The fraction ligated of the first is lower: 0.809 for the first, 0.828 for the second.

Compared with T29A T35A, T29A T35G is higher in fraction ligated: 0.821 for the first, 0.834 for the second.

Compared with C28A T35C, C28A T35A is lower in fraction ligated: 0.807 for the first, 0.792 for the second.

First: C28A T35G
Second: C28G T30G
The fraction ligated of the first is higher: 0.812 for the first, 0.788 for the second.

First: C28G T30C
Second: C28G T30A
The fraction ligated of the first is lower: 0.794 for the first, 0.802 for the second.

First: C28A C42A
Second: C28A C42G
The fraction ligated of the first is lower: 0.803 for the first, 0.81 for the second.

Compared with C28A C42T, T29A G50C is lower in fraction ligated: 0.823 for the first, 0.195 for the second.

Going from T29A G50T to T29A G50A, the fraction ligated falls from 0.585 to 0.295.

First: C28G G47A
Second: C28G G47C
The fraction ligated of the first is higher: 0.763 for the first, 0.484 for the second.

Compared with C28G G47T, C28G T29G is higher in fraction ligated: 0.591 for the first, 0.789 for the second.

Compared with C28G T29A, C28G T29C is higher in fraction ligated: 0.803 for the first, 0.814 for the second.

First: C28T T45A
Second: C28T T45G
The fraction ligated of the first is higher: 0.532 for the first, 0.0616 for the second.

Compared with C28T T45C, C28T A37T is higher in fraction ligated: 0.284 for the first, 0.81 for the second.

First: C28T A37G
Second: C28T A37C
The fraction ligated of the first is higher: 0.8 for the first, 0.799 for the second.

Compared with C28T G47T, C28T G47A is higher in fraction ligated: 0.3 for the first, 0.787 for the second.

Compared with C28T G47C, C28A A36T is higher in fraction ligated: 0.252 for the first, 0.811 for the second.

Compared with T29A C42A, T29A C42T is lower in fraction ligated: 0.86 for the first, 0.826 for the second.

Compared with T29A C42G, T29C A56C is lower in fraction ligated: 0.867 for the first, 0.758 for the second.

Compared with T29C A56G, T29C A56T is higher in fraction ligated: 0.788 for the first, 0.795 for the second.

Compared with T29C G34A, T29C G34C is lower in fraction ligated: 0.827 for the first, 0.793 for the second.

Going from C28G T49C to C28G T49A, the fraction ligated falls from 0.674 to 0.656.

Compared with C28G T49G, C28G A56T is higher in fraction ligated: 0.763 for the first, 0.767 for the second.

Going from C28G A56G to C28G A56C, the fraction ligated falls from 0.722 to 0.7.

Compared with T29C C40T, T29C C40G is higher in fraction ligated: 0.818 for the first, 0.824 for the second.

Going from T29C C40A to T29C A39T, the fraction ligated rises from 0.791 to 0.807.

Going from T29C A39C to T29C A39G, the fraction ligated rises from 0.819 to 0.824.

Compared with C28T T29C, C28T T29A is higher in fraction ligated: 0.789 for the first, 0.823 for the second.

Going from C28T T29G to T29A T30G, the fraction ligated rises from 0.825 to 0.828.

Going from T29A T30A to T29A T30C, the fraction ligated falls from 0.86 to 0.856.

Going from T29A G38C to T29A G38T, the fraction ligated rises from 0.851 to 0.87.

Going from T29A G38A to C28T G31A, the fraction ligated falls from 0.85 to 0.81.

Going from C28T G31T to C28T G31C, the fraction ligated rises from 0.826 to 0.828.

Going from T29C A36T to T29C A36G, the fraction ligated rises from 0.834 to 0.841.

Variant T29C A36C has a fraction ligated of 0.821.
